# Target: Monomeric soluble human PD-1 (human, UniProt Q15116 25-170)
# Assay: SPR; pH 7.4
# Chain of Monomeric soluble human PD-1 (Q15116 25-170): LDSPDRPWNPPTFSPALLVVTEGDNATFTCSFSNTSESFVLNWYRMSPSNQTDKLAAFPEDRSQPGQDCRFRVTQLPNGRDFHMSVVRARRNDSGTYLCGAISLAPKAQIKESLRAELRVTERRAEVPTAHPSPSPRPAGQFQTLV
row,Binder,koff
1,"Clone 2 anti-PD-1 antibody (antibody, V domains shown) VH: QVQLQQPGAELVKPGASVKLSCKASGYTFTTYYLYWVRQRPGQGLEWIGGINPSNGGTNFNEKFKSKATLTVDKSSSTAYMQLNSLTSEDSAVYYCTRRDYRYDRGFDYWGQGTSVTV VL: DIVLTQSPASLAVSLGQRATISCRASKSVSTSGFNYIHWYQQKPGQPPKLLIYLASNLESGVPARFSGSGSGTDFTLNIHPVEDEDAATYYCQHSRELPLTFGAGTKLEIK",~0.0027 s⁻¹
2,"Clone 10 anti-PD-1 antibody (antibody, V domains shown) VH: DVQLQESGPGLVKPSQSLSLTCTVTGYSITSDYAWNWIRQFPGNKLEWMGYINYSGSTSYNPSLKSRISITRDTSKNQFFLQLNSVTTEDTATYYCARWIGSSAWYFDVWGAGTTVTV VL: DVLMTQTPLSLPVSLGDQASISCRSGQNIVHSNGNTYLEWYLQKPGQSPKLLIYKVSNRFFGVPDRISGSGSGTDFTLKISRVEAEDLGVYFCFQGSHVPFTFGSGTKLEIK",~0.4 s⁻¹
3,"Clone 19 anti-PD-1 antibody (antibody, V domains shown) VH: QVQLQQSGAELVKPGASVKMSCKAFGYTFTTYPIEWMKQNHGKSLEWIGNFHPYNDDTKYNEKFKGKAKLTVEKSSTTVYLELSRLTSDDSAVYYCARENYGSHGGFVYWGQGTLVTV VL: ENVLTQSPAIMSASPGEKVTMTCRASSSVISSYLHWYQQKSGASPKLWIYSTSNLASGVPDRFSGSGSGTSYSLTISSVEAEDAATYYCQQYNGYPLTFGAGTKLEIK",~0.0013 s⁻¹
